In publication PMC11014985, “TCTP regulates genotoxic stress and tumorigenicity via intercellular vesicular signaling”:

T1: TCTP (UniProt P13693 1-172)
T1 sequence: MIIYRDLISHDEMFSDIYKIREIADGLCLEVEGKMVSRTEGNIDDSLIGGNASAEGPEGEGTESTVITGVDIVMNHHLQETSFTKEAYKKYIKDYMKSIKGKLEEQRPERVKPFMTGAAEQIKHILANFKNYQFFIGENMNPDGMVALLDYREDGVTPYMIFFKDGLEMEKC


How the values were obtained:
DDX3-WT = DDX3-WT (human, UniProt O00571 1-662); assay: EMSA; 300 nM DDX3, 50 nM RNA; ATP or AMP-PNP (nucleotide not specified for outcome); EMSA: RNA01 at pH 7.5, 6% native PAGE at 4 C; let-7c-5p 50 nM, proteins preincubated 20 min then 25 min on ice, ATP or AMP-PNP (5 mM), NativePAGE 3-12% Bis-Tris; conditions: protein: recombinant; single strand
TCTP [1] = biological target: T1, TCTP; assay: EMSA; 500 nM TCTP, 50 nM RNA; ATP or AMP-PNP; EMSA: RNA01 at pH 7.5, 6% native PAGE at 4 C; let-7c-5p 50 nM, proteins preincubated 20 min then 25 min on ice, ATP or AMP-PNP (5 mM), NativePAGE 3-12% Bis-Tris; conditions: protein: recombinant; single strand
Ded1 (DEAD-box helicase) = Ded1 (DEAD-box helicase) (yeast, UniProt P06634 1-604); assay: EMSA; 50 nM RNA; positive control; AMP-PNP; EMSA: RNA01 at pH 7.5, 6% native PAGE at 4 C; let-7c-5p 50 nM, proteins preincubated 20 min then 25 min on ice, ATP or AMP-PNP (5 mM), NativePAGE 3-12% Bis-Tris; conditions: protein: recombinant; label: 5'-Cy5; single strand
TCTP [2] = biological target: T1, TCTP; assay: EMSA; 50 nM RNA, increasing TCTP; pH 7.5; EMSA: RNA01 at pH 7.5, 6% native PAGE at 4 C; let-7c-5p 50 nM, proteins preincubated 20 min then 25 min on ice, ATP or AMP-PNP (5 mM), NativePAGE 3-12% Bis-Tris; conditions: protein: recombinant; label: 5'-Cy5; single strand

Chain of DDX3-WT (O00571 whole entry): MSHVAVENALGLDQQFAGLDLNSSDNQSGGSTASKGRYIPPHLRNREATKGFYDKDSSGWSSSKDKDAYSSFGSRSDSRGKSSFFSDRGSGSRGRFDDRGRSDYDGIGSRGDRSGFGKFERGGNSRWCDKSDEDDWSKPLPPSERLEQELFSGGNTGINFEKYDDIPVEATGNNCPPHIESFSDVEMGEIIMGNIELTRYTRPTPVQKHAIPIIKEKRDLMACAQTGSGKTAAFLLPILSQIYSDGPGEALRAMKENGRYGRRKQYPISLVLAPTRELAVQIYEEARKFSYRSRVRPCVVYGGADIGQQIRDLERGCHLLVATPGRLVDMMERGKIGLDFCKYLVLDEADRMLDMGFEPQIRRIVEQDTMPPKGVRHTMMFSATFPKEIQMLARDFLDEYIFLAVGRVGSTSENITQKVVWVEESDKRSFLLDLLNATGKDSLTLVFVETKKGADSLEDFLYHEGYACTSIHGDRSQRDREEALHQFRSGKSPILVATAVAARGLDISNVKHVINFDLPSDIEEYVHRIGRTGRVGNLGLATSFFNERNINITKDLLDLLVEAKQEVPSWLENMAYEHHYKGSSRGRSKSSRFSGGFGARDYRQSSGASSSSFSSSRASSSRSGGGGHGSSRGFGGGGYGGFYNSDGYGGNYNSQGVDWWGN
Chain of Ded1 (DEAD-box helicase) (P06634 whole entry): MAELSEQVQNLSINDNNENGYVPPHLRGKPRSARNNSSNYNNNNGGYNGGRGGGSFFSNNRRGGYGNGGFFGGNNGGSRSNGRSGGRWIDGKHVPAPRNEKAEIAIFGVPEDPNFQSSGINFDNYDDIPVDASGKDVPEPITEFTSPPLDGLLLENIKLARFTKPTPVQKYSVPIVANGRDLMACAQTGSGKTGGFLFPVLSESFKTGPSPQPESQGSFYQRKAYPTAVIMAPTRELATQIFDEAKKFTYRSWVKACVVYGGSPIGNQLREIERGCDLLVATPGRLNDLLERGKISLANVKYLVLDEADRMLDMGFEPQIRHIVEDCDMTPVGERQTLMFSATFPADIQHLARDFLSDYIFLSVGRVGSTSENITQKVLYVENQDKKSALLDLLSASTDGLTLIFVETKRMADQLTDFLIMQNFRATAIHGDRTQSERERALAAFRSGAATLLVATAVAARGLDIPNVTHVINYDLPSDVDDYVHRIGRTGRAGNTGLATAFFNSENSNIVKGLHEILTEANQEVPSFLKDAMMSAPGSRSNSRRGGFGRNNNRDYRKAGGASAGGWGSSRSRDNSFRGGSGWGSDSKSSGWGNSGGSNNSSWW

| Binder | binding result (DDX3-WT) | binding result (TCTP [1]) | binding result (Ded1 (DEAD-box helicase)) | binding result (TCTP [2]) |
| --- | --- | --- | --- | --- |
| UGAGGUAGUAGGUUGUAUGGUU (ssRNA) [let-7c-5p] | binds | no binding |  |  |
| UCAUACUUUUCUUUUCUUUUCCAUC (ssRNA) [RNA01] |  |  | binds | no binding |
